Measurements reported in patent US10081665B2, “Peptides and combination of peptides for use in immunotherapy against various tumors” (immatics biotechnologies GmbH, priority 2015, dated 2018).

Target: HLA-A*02:01 (Homo sapiens, UniProt P04439, D140Y/D185E/D98H/E176V/E277Q/G131W/G231S/I119V/I121R/I166T/I218V/L300P/L318F/N151K/N90K/P208A/P217A/Q86G/Q94H/R138H/R169H/T345S)
Test: MHC binding assay (UV-ligand exchange, beta2m ELISA)
Details: binding to HLA-A*02:01, β2m ELISA
Outline: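 Peptide-MHC complexes made by UV-ligand exchange of a UV-cleavable peptide for test peptide; exchange yield measured by β2m ELISA on streptavidin-coated plates with samples diluted 100-fold, HRP anti-β2m and TMB read at 450 nm. Refolded HLA-A*02:01/MLA-001 monomers (15-500 ng/ml) served as standards.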

| Substance | Peptide exchange (MHC class I binding score, peptide exchange yield) |
| --- | --- |
| 140 (FLDSQITTV; listed as Homo sapiens) [compound 140] | +++ (≥50 = +++) |
| 1 (KLQEKIQEL; listed as Homo sapiens) [compound 1] | ++++ (≥75% = ++++) |
| 141 (NIDINNNEL; listed as Homo sapiens) [compound 141] | ++ (≥20% = ++) |
| 40 (KIWEELSVLEV; listed as Homo sapiens) [compound 40] | +++ (≥50 = +++) |
| 116 (ALLSSVAEA; listed as Homo sapiens) [compound 116] | ++ (≥20% = ++) |
| 57 (TLYPGRFDYV; listed as Homo sapiens) [compound 57] | ++ (≥20% = ++) |
| 25 (LLWGHPRVALA; listed as Homo sapiens) [compound 25] | +++ (≥50 = +++) |
| 129 (KMASKVTQV; listed as Homo sapiens) [compound 129] | ++ (≥20% = ++) |
| 148 (YLILSSHQL; listed as Homo sapiens) [compound 148] | +++ (≥50 = +++) |
| 158 (YLDPLWHQL; listed as Homo sapiens) [compound 158] | +++ (≥50 = +++) |
| 83 (GLLENSPHL; listed as Homo sapiens) [compound 83] | ++ (≥20% = ++) |
| 24 (KVWSDVTPL; listed as Homo sapiens) [compound 24] | +++ (≥50 = +++) |
| 143 (MLWESIMRV; listed as Homo sapiens) [compound 143] | +++ (≥50 = +++) |
| 93 (RLYGYFHDA; listed as Homo sapiens) [compound 93] | ++ (≥20% = ++) |
| 19 (KVFELDLVTL; listed as Homo sapiens) [compound 19] | ++ (≥20% = ++) |
| 164 (MLIIRVPSV; listed as Homo sapiens) [compound 164] | +++ (≥50 = +++) |
| 80 (VLTGQVHEL; listed as Homo sapiens) [compound 80] | +++ (≥50 = +++) |

| Substance | Peptide exchange (MHC class I binding score, peptide exchange yield) |
| --- | --- |
| 30 (IITEVITRL; listed as Homo sapiens) [compound 30] | +++ (≥50 = +++) |
| 126 (QLREAFEQL; listed as Homo sapiens) [compound 126] | +++ (≥50 = +++) |
| 60 (YLFSQGLQGL; listed as Homo sapiens) [compound 60] | +++ (≥50 = +++) |
| 162 (GLLGNLLTSL; listed as Homo sapiens) [compound 162] | +++ (≥50 = +++) |
| 113 (FLFLKEVKV; listed as Homo sapiens) [compound 113] | ++ (≥20% = ++) |
| 117 (TLLEGISRA; listed as Homo sapiens) [compound 117] | ++ (≥20% = ++) |
| 163 (GLEERLYTA; listed as Homo sapiens) [compound 163] | ++ (≥20% = ++) |
| 107 (RVLPGQAVTGV; listed as Homo sapiens) [compound 107] | ++ (≥20% = ++) |
| 61 (ALYPKEITL; listed as Homo sapiens) [compound 61] | +++ (≥50 = +++) |
| 161 (NLLDENVCL; listed as Homo sapiens) [compound 161] | ++++ (≥75% = ++++) |
| 41 (IVTEIISEI; listed as Homo sapiens) [compound 41] | +++ (≥50 = +++) |
| 52 (TIGIPFPNV; listed as Homo sapiens) [compound 52] | ++ (≥20% = ++) |
| 105 (AMLASQTEA; listed as Homo sapiens) [compound 105] | ++ (≥20% = ++) |
| 51 (LDSEALLTL; listed as Homo sapiens) [compound 51] | ++ (≥20% = ++) |
| 142 (LLDAAHASI; listed as Homo sapiens) [compound 142] | ++ (≥20% = ++) |
| 86 (SLFSNIESV; listed as Homo sapiens) [compound 86] | +++ (≥50 = +++) |

More lines, now with the values ahead:

| Peptide exchange (MHC class I binding score, peptide exchange yield) | Substance |
| --- | --- |
| +++ (≥50 = +++) | 218 (SLTGANITV; listed as Homo sapiens) [compound 218] |
| ++ (≥20% = ++) | 272 (FVMEGEPPKL; listed as Homo sapiens) [compound 272] |
| ++ (≥20% = ++) | 279 (VLMDEGAVLTL; listed as Homo sapiens) [compound 279] |
| +++ (≥50 = +++) | 274 (TLYNPERTITV; listed as Homo sapiens) [compound 274] |
| ++ (≥20% = ++) | 185 (TLYQGLPAEV; listed as Homo sapiens) [compound 185] |
| +++ (≥50 = +++) | 249 (YLYQILQGI; listed as Homo sapiens) [compound 249] |
| +++ (≥50 = +++) | 270 (TLLTFFHEL; listed as Homo sapiens) [compound 270] |
| +++ (≥50 = +++) | 175 (SLLDLVQSL; listed as Homo sapiens) [compound 175] |
| +++ (≥50 = +++) | 261 (GLAALAVHL; listed as Homo sapiens) [compound 261] |
| +++ (≥50 = +++) | 248 (VLMQDSRLYL; listed as Homo sapiens) [compound 248] |
| ++ (≥20% = ++) | 282 (SLYALHVKA; listed as Homo sapiens) [compound 282] |
| ++ (≥20% = ++) | 174 (ALYSGDLHAA; listed as Homo sapiens) [compound 174] |
| ++ (≥20% = ++) | 221 (IMLNSVEEI; listed as Homo sapiens) [compound 221] |
| +++ (≥50 = +++) | 250 (LMQDSRLYL; listed as Homo sapiens) [compound 250] |
| +++ (≥50 = +++) | 277 (KLQEELNKV; listed as Homo sapiens) [compound 277] |
| ++++ (≥75% = ++++) | 269 (GLLDCPIFL; listed as Homo sapiens) [compound 269] |
| ++ (≥20% = ++) | 170 (FIAAVVEKV; listed as Homo sapiens) [compound 170] |
| +++ (≥50 = +++) | 286 (FLTEMVHFI; listed as Homo sapiens) [compound 286] |
